The target in one test is T1, ABCB1 transporter (Cricetulus griseus, UniProt P21448).
T1 construct: In drug resistant cells, calcein-AM is extruded by the ABCB1 transporter; endogenous in cells; host or cells: CHO cell clone CH(R)B30 (colchicine-resistant)
Type of test: cell-based, Chinese hamster.

For test [1], the target named is human MDR1 (P-gp) expressed in HU-2 mouse lymphoma cells (human) (UniProt P08183). Put plainly: cell-based or functional assay.
The next test relates to HU-2 cells. Nature of the test: Cell viability of HU-2 cells with toxic drugs (Trypan blue exclusion). The note with it: 2 μg/ml Adriamycin or 1 μg/ml colchicine, FIG. 6A. Type of test: cell-based, mouse. Here is the method:
T-25 cells (Hochman et al, 1984), derived from S49 mouse lymphoma, were transduced with a retrovirus containing the human MDR1 cDNA, as previously described (Galski et al. 1995). The resultant cells (HU-2) are cross-resistant to colchicine, doxorubicin, vinblastine and actinomycin D, and their resistance to colchicine is reversed by verapamil. T-cell lymphoma derived cell lines were grown in Dulbecco's modified eagle medium (DMEM) supplemented with 10% heat-inactivated horse serum, at 37° C. in a humidified atmosphere containing 5% CO2.
To measure the sensitivity of HU-2 cells to toxic drugs, 1×10^5 cells per well were incubated with 10 μg of the conjugate for 4 hrs. 2 μg/ml of Adriamycin or 1 μg/ml of colchicine was then added and the cells incubated for a further 96 hrs. Stocks were prepared in DMSO. The maximal final concentration of DMSO in the assays was 0.5% (v/v). After 96 h, the cells were checked by light microscopy and viable cells were counted by Trypan blue exclusion.

This note sets out measurements from patent US20100196403A1, “ANTIBODY CONJUGATES FOR CIRCUMVENTING MULTI-DRUG RESISTANCE” (priority 2007, published 2010).

Sequence of human MDR1 (P-gp) expressed in HU-2 mouse lymphoma cells (human) (P08183 whole entry): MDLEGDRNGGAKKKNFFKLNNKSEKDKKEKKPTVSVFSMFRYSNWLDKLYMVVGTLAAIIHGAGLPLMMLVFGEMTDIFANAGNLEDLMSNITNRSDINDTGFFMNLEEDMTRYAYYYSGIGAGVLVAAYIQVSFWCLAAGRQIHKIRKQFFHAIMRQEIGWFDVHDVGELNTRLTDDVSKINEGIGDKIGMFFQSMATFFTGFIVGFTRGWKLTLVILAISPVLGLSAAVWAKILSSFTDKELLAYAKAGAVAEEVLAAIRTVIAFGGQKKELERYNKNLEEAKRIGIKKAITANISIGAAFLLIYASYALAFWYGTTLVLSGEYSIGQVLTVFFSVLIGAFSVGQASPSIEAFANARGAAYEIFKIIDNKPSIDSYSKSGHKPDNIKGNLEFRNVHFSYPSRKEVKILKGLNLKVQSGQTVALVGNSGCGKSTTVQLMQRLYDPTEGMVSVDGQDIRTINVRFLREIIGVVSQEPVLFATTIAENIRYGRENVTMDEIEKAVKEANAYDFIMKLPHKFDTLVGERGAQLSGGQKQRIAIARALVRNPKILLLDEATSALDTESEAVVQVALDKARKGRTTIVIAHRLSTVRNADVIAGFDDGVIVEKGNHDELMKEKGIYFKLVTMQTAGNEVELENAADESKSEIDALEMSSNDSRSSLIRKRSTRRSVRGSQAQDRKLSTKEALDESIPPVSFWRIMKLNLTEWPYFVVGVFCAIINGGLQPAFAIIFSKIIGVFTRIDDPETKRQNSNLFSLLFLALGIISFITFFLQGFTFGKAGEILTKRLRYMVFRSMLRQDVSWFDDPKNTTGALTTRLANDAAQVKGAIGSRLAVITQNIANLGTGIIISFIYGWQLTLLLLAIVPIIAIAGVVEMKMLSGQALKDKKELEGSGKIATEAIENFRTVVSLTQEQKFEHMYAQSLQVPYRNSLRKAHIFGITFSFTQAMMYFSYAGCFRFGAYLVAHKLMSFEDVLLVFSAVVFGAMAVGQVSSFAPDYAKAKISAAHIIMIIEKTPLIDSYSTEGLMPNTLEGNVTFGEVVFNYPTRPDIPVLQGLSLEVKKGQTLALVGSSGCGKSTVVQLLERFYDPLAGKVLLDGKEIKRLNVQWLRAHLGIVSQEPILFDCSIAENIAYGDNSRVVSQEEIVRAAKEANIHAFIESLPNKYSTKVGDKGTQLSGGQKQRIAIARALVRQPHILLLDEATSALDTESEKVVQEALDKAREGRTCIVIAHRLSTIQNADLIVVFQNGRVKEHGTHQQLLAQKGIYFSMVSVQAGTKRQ
T1 sequence (P21448 whole entry): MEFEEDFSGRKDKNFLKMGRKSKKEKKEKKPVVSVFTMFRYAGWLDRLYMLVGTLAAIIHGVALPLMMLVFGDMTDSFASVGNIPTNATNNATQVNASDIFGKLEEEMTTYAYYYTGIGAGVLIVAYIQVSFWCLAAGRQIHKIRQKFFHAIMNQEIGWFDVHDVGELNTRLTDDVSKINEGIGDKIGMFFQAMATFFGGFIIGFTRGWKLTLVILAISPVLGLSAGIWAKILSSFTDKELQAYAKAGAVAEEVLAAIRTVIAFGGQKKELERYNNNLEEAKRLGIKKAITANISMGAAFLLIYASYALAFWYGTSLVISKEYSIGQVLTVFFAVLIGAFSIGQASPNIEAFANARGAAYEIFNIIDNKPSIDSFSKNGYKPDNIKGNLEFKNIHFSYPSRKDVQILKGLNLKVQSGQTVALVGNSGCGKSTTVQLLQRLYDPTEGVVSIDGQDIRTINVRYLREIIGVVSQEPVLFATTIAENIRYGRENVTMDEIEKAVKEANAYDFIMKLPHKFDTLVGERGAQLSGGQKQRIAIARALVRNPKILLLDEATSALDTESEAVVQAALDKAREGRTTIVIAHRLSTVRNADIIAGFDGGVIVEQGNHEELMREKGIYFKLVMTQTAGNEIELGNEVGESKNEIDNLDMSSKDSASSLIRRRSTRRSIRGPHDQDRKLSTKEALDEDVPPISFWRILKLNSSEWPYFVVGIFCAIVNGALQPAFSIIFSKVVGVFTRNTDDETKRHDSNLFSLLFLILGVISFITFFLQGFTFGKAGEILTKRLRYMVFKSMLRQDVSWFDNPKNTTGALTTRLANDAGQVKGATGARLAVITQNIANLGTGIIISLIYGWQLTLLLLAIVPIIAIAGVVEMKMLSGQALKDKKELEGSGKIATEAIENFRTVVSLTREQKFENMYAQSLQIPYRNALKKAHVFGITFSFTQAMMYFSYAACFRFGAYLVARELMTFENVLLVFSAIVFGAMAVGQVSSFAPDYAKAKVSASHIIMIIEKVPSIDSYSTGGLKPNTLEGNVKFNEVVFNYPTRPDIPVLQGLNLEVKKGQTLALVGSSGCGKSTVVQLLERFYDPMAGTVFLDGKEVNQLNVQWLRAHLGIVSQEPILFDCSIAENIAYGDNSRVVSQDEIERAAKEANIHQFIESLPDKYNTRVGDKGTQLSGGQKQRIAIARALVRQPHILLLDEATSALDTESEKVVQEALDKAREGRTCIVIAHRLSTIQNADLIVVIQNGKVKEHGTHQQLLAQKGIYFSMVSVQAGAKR
Method for ABCB1 transporter: Cells were grown in alpha-MEM medium supplemented with 10% Fetal Calf Serum (FCS), penicillin 50 U/ml, streptomycin 50 μg/ml, and ceftazidim 50 μg/ml. For propagation of the clone, colchicine was added to this medium to a final concentration of 20 μg/ml.
Cells were diluted in alpha MEM to about 1.5×10^6 cells/ml. Volumes of 1 ml were distributed to 2 ml Eppendorf tubes. […] The capped tubes were positioned with their longitudinal axes inclined to 45° on a roller platform and were rotated in the incubator. The cells were incubated with conjugates, proteins, or peptides, respectively, at various concentrations and for various times. […] Calcein-AM was added to a final concentration of 1 μM or 2 μM at least 30 min before the end of incubation. Calcein-AM, a substrate of ABCB1, is a hydrophobic non-fluorescent substance that easily enters cells. Once in the cytoplasm, calcein-AM is hydrolysed, and the ensuing fluorescent calcein is retained within the cells. In drug resistant cells, calcein-AM is extruded by the ABCB1 transporter. […] All vials were stopped by addition of ice-cold medium and then put on ice for subsequent flow cytometry (beginning about 1 h after the end of incubation). […] 100,000 cells, in a few experiments 50,000 cells per vial were counted. […] The median channel xM of the y distribution and yM, the number of cells in xM, were determined.

As for “CFITKALGISYGRKKRRQRRRPPQGSQTHQVSLSKQ [(37-72)Tat]”, in the test with ABCB1 transporter (1 μM, 210 min, FIG. 4F), the “shift in the flow cytometry histogram” value is on record as “small”. Besides, the “effect on MDR activity (summary of results)” value in the test with ABCB1 transporter (colchicine-resistant CH(R)B30 cells) is on record as “only a marginal effect”.
In the case of “C219-S-S-(37-72)Tat conjugate (Mab C219 linked through PDPH and a disulfide bond to Cys 37 of HIV-1 (37-72)Tat) (antibody)”, in test [1], the cell death of HU-2 cells with Adriamycin 2 µg/ml in the presence of 10 µg conjugate, Trypan blue count after 96 h, normalized to drug without conjugate was 68% and the cell death of HU-2 cells with colchicine 1 µg/ml in the presence of 10 µg conjugate, Trypan blue count after 96 h, normalized to drug without conjugate was determined as 91%.
`COc1cc2c(c(OC)c1OC)-c1ccc(OC)c(=O)cc1[C@@H](NC(C)=O)CC2` [colchicine]: in the test with HU-2 cells, the “viability of HU-2 cells with drug, no conjugate” value is “remain viable”.
Consider `COc1cccc2c1C(=O)c1c(O)c3c(c(O)c1C2=O)C[C@@](O)(C(=O)CO)C[C@@H]3O[C@H]1C[C@H](N)[C@H](O)[C@H](C)O1` [adriamycin, doxorubicin], for which the “viability of HU-2 cells with drug, no conjugate” value in the test with HU-2 cells is on record as “remain viable”.
